# Measured values from patent US20230051266A1 (ABL BIO, published 2023).
# Substitutions are numbered along the chain they refer to.
# T1: Recombinant Human BCMA (human, UniProt Q02223 1-54)
# T1 construct: also called hBCMA; recombinant BCMA
# T1 sequence: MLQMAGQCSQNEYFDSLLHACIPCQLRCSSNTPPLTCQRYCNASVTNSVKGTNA
# B1: 5B5 (phage antibody clone) (scFv, V domains shown)
# VH: EVQLLESGGGLVQPGGSLRLSCAASGFTFSGHYWSWVRQAPGKGLEWVSTVSGSGGDTFYADSVKGRFTISRDNSKNTLYLQMNSLRAEDTAVYYCARGHSVMDVWGQGTLVTVSS
# VL: EIVLTQSPGTLSLSPGERATLSCRASQGIDSYVAWYQQKPGQAPRLLIYDASLRATGIPDRFSGSGSGTDFTLTISRLEPEDFAVYYCQQYNSWPITFGQGTKLEIK
# B2: 5D5 (phage antibody clone) (scFv, V domains shown)
# VH: EVQLLESGGGLVQPGGSLRLSCAASGFTFSDYGLSWVRQAPGKGLEWVSLIDSSGSSTFYADSVKGRFTISRDNSKNTLYLQMNSLRAEDTAVYYCAKEHGLFDSWGQGTLVTVSS
# VL: B1 VL with R24K, G28D, S31D, Y32D, V33I, A34N, Y91S, N92L, S93R, W94T
# B3: AB41 (phage antibody clone) (other)
# VH: QVQLQQSGAEVIKPGASVKLSCKASGYTFSSYWMHWVRQAPGQGLEWIGEINPGNGHTNYNEKFKSRATLTGDTSTSTVYMELSSLRSEDTAVYYCARSFTTARAFAYWGQGTLVTVSS
# VL: DIVMTQSPAFLSVTPGEKVTITCRASQTISDYLHWYQQKPDQAPKLLIKYASQSISGIPSRFSGSGSGTDFTFTISSLEAEDAATYYCQDGHSFPPTFGQGTKLEIK
# notes: Clone as selected by phage ELISA
# B4: 5A6 (phage antibody clone) (scFv, V domains shown)
# VH: EVQLLESGGGLVQPGGSLRLSCAASGFTFSNYGVHWVRQAPGKGLEWVSYISYSGGTYYNPSLKSRFTISRDNSKNTLYLQMNSLRAEDTAVYYCARDSDDFGFDYWGQGTLVTVSS
# VL: QSVLTQPPSASGTPGQRVTISCQGDSLRSYYVNWYQQLPGTAPKLLIYDHSKRPTGVPDRFSGSKSGTSASLAISGLRSEDEADYYCQSYDSSTVVFGGGTKLTVL
# Columns and labels:
# Recombinant Human BCMA = target: T1, Recombinant Human BCMA; test: single clone phage ELISA on coated recombinant BCMA
# Method: Specifically, the phage pool obtained according to Example 1-2 was sequentially diluted, and cultured on a solid medium containing LB-tetracycline/cabenicillin to obtain single colonies. Each colony was cultured on a 96-deep well plate so that OD600 was from 0.5 to 0.7. 20 MOI of helper phage was added to each well, and reacted at 37° C. for 1 hour. Thereafter, kanamycin was added to each well and incubated overnight at 30° C. On the next day, the culture was centrifuged and the supernatant thereof was collected, and then, ELISA was performed to select BCMA-specific phages. Each well of the ELISA plate was coated with 100 ng of recombinant BCMA, and then incubated with PBS-B (3% BSA containing PBS) to prevent nonspecific binding. Thereafter, the plate was washed with PBS. The prepared single clone phage was added to each well and incubated at 37° C. for 1 hour, and the plate was washed three times with PBS-T. For detecting the bounded phages, horseradish peroxidase (HRP) conjugated anti-hemagglutinin (HA) antibody was added to each well. After washing step with PBS-T, tetramethylbenzidine (TMB, Sigma, T0440) was added. Clones, which are with an absorbance that is 0.5 or more at the wavelength of 450 nm and also the absorbance is at least 5 times greater than that of the control with anti-HA HRP alone, were selected. Four antibody clones (B58, 5B5, 5D5, and 5A6), which specifically bind to human BCMA, were selected.
# [1] = target: T2, Recombinant Human 4-1BB protein (human, UniProt Q07011 24-186); test: phage ELISA on 4-1BB antigen-coated plates
# T2 construct: also called h4-1BB; 4-1BB antigen
Binder,binding result (Recombinant Human BCMA),binding result [1]
B1,binds,
B2,binds,
B3,,binds
B4,binds,
